Experiment [1] concerns the target T1, recombinant human full-length TDP-43 (TAR DNA-binding protein 43), soluble (human, UniProt Q13148 1-414).
T1 construct: Used on Luminex beads, coated on ELISA plates, and immobilized or injected in SPR; also called FL TDP-43; TDP-43 protein
The experiment is described as follows: SPR, mAb captured, FL TDP-43 injected; mean. As to the method: Binding affinity to soluble FL TDP-43 was evaluated by determing the dissociation constants (KD) using surface plasmon resonance (SPR; Biacore T200, GE Healthcare Life Sciences). Goat-anti mouse capture antibody was immobilized on a CM5 Series S sensor chip (GE Healthcare Life Sciences) by amine coupling. Antibodies were captured at a concentration of 2-5 µg/ml in PBS-P⁺ (GE Healthcare Life Sciences) with a flow rate of 10 µl/min for 120 seconds resulting in a capture level of 350-1000 RU. […] Dissociation was recorded for 1 h followed by one regeneration with 10 mM glycine-HCl pH 1.7. Results obtained from binding kinetics were double-referenced using a blank flow cell and a buffer cycle and were evaluated with a global 1:1 fitting model with RI.
(In general: SPR reads the build-up and loss of mass on a sensor chip optically.)

In experiment [2] the target is T1, recombinant human full-length TDP-43 …. The experiment is described as follows: Luminex, FL TDP-43 on beads. As to the method:
Mice were euthanized and fusion with myeloma cells was performed using splenocytes from four individual mice. Screening for antibodies from the successfully fused hybridoma cell lines were performed as follows. Diluted (1:32) cell culture supernatants were analyzed using Luminex bead-based multiplex assay (Luminex, The Netherlands). Luminex beads were conjugated to FL TDP-43 and with capturing IgGs with anti-mouse IgG-Fc antibodies specific for the IgG1, IgG2a, IgG2b, IgG2c, and IgG3 subclasses (Jackson Immunoresearch, USA). Binding to beads conjugated to FL TDP-43 identified 386 hits derived from mice immunized with the FL TDP-43 liposomal vaccine.
Luminex assays with serial dilution of antibodies were performed as described before to determine half maximal effective concentration (EC50) of binding of antibodies to FL TDP-43. In summary, all tested antibodies bind to full length TDP-43 with high affinity.

Experiment [3] addresses T2, recombinant human aggregated full-length TDP-43 (human, UniProt Q13148 1-414).
T2 construct: also called aggregated TDP-43; aggregated FL TDP-43
The experiment is described as follows: SPR, immobilized aggregated TDP-43. The method in brief: (§1)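 Biacore SPR with soluble (150 RU) or aggregated (110 RU) full-length TDP-43 amine-coupled to CM5, or biotinylated TP-73 peptide captured on SA chip (400 RU). Antibodies injected (optimized: 3-fold series 300 to 1.2 nM, 300 s association, 600 s dissociation); glycine pH 1.7 regeneration; double-referenced, KD from global 1:1 fit.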

For experiment [4], the target named is T3, Biotinylated TP-73 peptide (aa 181-190 of SEQ ID NO:1) (human, also: biotinylated (position not given here)).
T3 construct: Immobilized on a streptavidin (SA) sensor chip
T3 peptide: KQSQDEPLRS
In words: SPR, biotinylated TP-73 on SA chip. As for the experimental part:
Binding avidity to soluble or aggregated FL TDP-43 was evaluated by determing the dissociation constants (KD) using surface plasmon resonance (SPR; Biacore T200, GE Healthcare Life Sciences). Recombinant human soluble or aggregated FL TDP-43 were immobilized on a CM5 Series S sensor chip (GE Healthcare Life Sciences) by amine coupling. Soluble TDP-43 was immobilized at a concentration of 5 µg/ml in 10 mM sodium acetate (pH 4.5) with a flow rate of 5 µl/min for 420 seconds resulting in an immobilization level of 150 RU. Aggregated TDP-43 was immobilized at a concentration of 50 µg/ml in 10 mM sodium acetate (pH 4.5) with a flow rate of 5 µl/min for 840 seconds resulting in an immobilization level of 110 RU. Biotinylated TP-73 peptide (aa 181-190 of SEQ ID NO:1) was immobilized on a Series S Sensor Chip SA (GE Healthcare Life Sciences) at a concentration of 5 µg/ml in PBS-P⁺ with a flow rate of 5 µl/min for 30 seconds resulting in an immobilization level of 400 RU. […] The antibodies were injected at a flow rate of 50 µl/min for 90 seconds contact time and 700 seconds dissociation phase followed by three regenerations with 10 mM glycine-HCl pH 1.7. […] Results obtained from binding kinetics were double-referenced using a blank flow cell and a buffer cycle and were evaluated with a global 1:1 fitting model with RI. […]

Experiment [5] deals with T1, recombinant human full-length TDP-43 …. The experiment is described as follows: indirect ELISA, coated FL TDP-43. As to the method:
Antibody binding to human FL TDP-43 was determined using an indirect ELISA. ELISA plate coating with 1 µg/ml human FL TDP-43 was performed overnight in carbonate buffer at 4° C. Plates were washed with 0.05% Tween-20/PBS and then blocked with 1% bovine serum albumin (BSA) in 0.05% Tween-20/PBS for 1 hour at 37° C. Antibodies purified from hybridoma supernatants were then added in a 3-fold serial dilution starting at 1 µg/ml, and incubated for 2 hours at 37° C. after which the plates were washed. An AP-conjugated anti-mouse IgG secondary antibody (Jackson Immunoresearch Laboratories, United Kingdom) was added at 1/1000 dilution in 0.05% Tween-20/PBS for 1 hour at 37° C. After the final wash, plates were incubated with pNPP (Sigma-Aldrich, Switzerland) phosphatase substrate solution, and read at 405 nm using an ELISA plate reader (Tecan, Switzerland).
Background: An ELISA detects its analyte on a solid surface through an enzyme-linked reagent.

Experiment [6] shares this target. In words: SPR, immobilized soluble TDP-43. The method in brief: as §1
Experiment [7] concerns the target T4, TP-51 peptide (aa 352-414 of SEQ ID NO:1) (human).
T4 construct: Synthetic peptide (Pepscan)
T4 peptide: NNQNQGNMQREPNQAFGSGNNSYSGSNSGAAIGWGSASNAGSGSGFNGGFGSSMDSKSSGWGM
The experiment is described as follows: SPR, mAb captured, TP-51 injected; mean.

Experiment [8] concerns the target T4, TP-51 peptide (aa 352-414 of SEQ ID …). In words: SPR, mAb captured, TP-51 injected.
In experiment [9] the target is T1, recombinant human full-length TDP-43 …. The experiment is described as follows: SPR, immobilized soluble TDP-43; whole hybridoma antibody, first SPR protocol (90 s contact); soluble TDP-43 on the chip.
The target is the same in experiment [10]. In words: SPR, immobilized soluble TDP-43; Fab fragment, not whole antibody; soluble TDP-43 on the chip.

Where no end group is shown, it is not given here. A value given as a limit tells only on which side of the number the result lay.

T1 sequence (Q13148 whole entry): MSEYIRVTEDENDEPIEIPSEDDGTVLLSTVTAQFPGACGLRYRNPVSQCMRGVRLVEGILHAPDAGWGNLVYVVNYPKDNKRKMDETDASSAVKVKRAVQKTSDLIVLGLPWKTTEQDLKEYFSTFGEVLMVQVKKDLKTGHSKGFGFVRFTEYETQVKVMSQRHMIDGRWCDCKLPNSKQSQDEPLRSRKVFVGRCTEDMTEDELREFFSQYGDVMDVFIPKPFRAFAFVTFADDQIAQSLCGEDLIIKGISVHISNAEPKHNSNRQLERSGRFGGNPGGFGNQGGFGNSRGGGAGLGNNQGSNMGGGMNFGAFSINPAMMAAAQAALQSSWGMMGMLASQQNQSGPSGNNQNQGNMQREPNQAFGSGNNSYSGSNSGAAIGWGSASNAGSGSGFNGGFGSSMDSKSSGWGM
T2 sequence (Q13148 whole entry): as above

B1: ACI-7069-642D12-Ab1 (antibody, mouse IgG2b, V domains shown)
VH: EVQLQQSGAELVKPGASVRLSCTASGFNIKDPYMHWVRQRPKQGLEWIGRIDPADGNTKYDPKFQGKATLTADTSSNVAYLHLSSLTSEDTAVYYCARFYGSSHWYFDVWGAGTTVTVSS
VL: DIKMTQSPSSMYASLGERVTITCKASQDIKRYLSWYQQKPWKSPKILIYYATSLADGVPSRFSGTGSGQDYSLTISSLESDDVATYYCLQQGESPYTFGGGTKLEIK
notes: Mouse IgG2b, kappa, from hybridoma; also called 642D12B4
As to B1, the Kd in [1] was 0.249 nM; in [3], 0.88 nM; in experiment [4] it was 3.6 nM; in experiment [6], 5.28 nM. In addition, the koff in experiment [1] is 2.76e-05 s⁻¹; in experiment [3], 0.000131 s⁻¹; in experiment [6], 0.000838 s⁻¹. The on-rate constant (kon) in experiment [1] came to 110000 M⁻¹ s⁻¹; in experiment [3], 148000 M⁻¹ s⁻¹; in experiment [6], 159000 M⁻¹ s⁻¹. Also, the results for the EC50 in experiment [2] and in experiment [5] were below 0.01 nM and 0.014 µg/mL, respectively.

B2: ACI-7069-633B12-Ab1 (antibody, mouse IgG2b, V domains shown)
VH: EVQLQQSGPELVKPGASVKISCKTSGFTFTEYSMHWVKQSHGKSLEWIGGINPNNGGTSYNQKFKGKATLTVDKSSSTAYMELRSLTSEDSAVYYCARESWGQGTTLTVSS
VL: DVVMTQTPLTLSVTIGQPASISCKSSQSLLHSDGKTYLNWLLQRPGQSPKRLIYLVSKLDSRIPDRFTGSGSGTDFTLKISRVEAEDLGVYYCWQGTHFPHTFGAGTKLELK
notes: Mouse IgG2b, kappa, from hybridoma; also called 633B12C8
As for B2, the Kd is 0.075 nM in experiment [1]; 1.25 nM in [7]; 0.62 nM in [3]; 1.18 to 1.32 nM in experiment [8]; 365 nM in experiment [9]. For the same molecule, the off-rate constant (koff) was found to be 3.45e-06 s⁻¹ in experiment [1], 0.000138 s⁻¹ in [7], 5.01e-05 s⁻¹ in experiment [3] and 0.000319 s⁻¹ in experiment [6]. The kon in experiment [1] came out at 43900 M⁻¹ s⁻¹; in experiment [7], 110000 M⁻¹ s⁻¹; in experiment [3], 82100 M⁻¹ s⁻¹; in experiment [6], 873 M⁻¹ s⁻¹. Also, the EC50 in experiment [2] was below 0.01 nM; in [5], 0.032 µg/mL.

B3: 633B12C8 Fab (Fab, V domains shown)
VH: B2 VH
VL: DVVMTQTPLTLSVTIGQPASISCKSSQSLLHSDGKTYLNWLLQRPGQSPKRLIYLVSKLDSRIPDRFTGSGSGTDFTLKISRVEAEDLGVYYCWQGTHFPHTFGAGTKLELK
notes: Fab fragment; also called Fab fragment of ACI-7069-633B12-Ab1
Take B3: in experiment [10], the Kd turned out to be 2.8 nM. For the same molecule, in experiment [3], the Kd was determined as 6.9 nM, the koff turned out to be 0.000215 s⁻¹ and the kon is 32200 M⁻¹ s⁻¹. In [6], the off-rate constant (koff) turned out to be 0.000146 s⁻¹ and the kon is 55100 M⁻¹ s⁻¹.

Broadly, the Kd is the constant that tells how readily two partners part at equilibrium. The koff is a measure of how fast the partners let go of each other. Usually kon stands for the rate constant with which the complex forms. By EC50 is commonly meant the concentration at which the effect is half-maximal.

These data come from patent publication US20230322908A1 (AC IMMUNE, published 2023).
